Data: patent US9951373B2, “Oplophorus-derived luciferases, novel coelenterazine substrates, and methods of use” (Promega Corporation, priority 2010, dated 2018)

Columns and labels:
[1] = Enzyme kinetics of OgLuc variants in E. coli lysates; assay type: biochemical; conditions: PBI-3939, E. coli lysates
Method: Using methods known in the art, enzyme kinetic assays measuring luminescence were performed with the lysates of E. coli containing IV and the IV variants 15C1, 9B8, 9F6, and 9A3. […] Two fold serial dilutions of PBI-3939 in the assay buffer described previously in Example 26 were assayed with the diluted lysates. […] Variants 9B8 and 9F6 had higher Km values compared to IV while Km values for the other variants were unchanged.
Luminescence was measured on a TECAN® INFINITE® F500 luminometer.
The enzyme kinetics values were determined for the OgLuc variants as described previously, except luminescence was measured using a GLOMAX® luminometer. Three replicates were used for each variant.

[2] = Stability of secreted OgLuc variants in saved media; assay type: physicochemical; conditions: secreted variant in saved media
Method: To determine if the secretion signal sequence of OgLuc facilitates its secretion, the OgLuc variants 9B8, V2 and L27V were cloned into pF4Ag containing an N-terminal OgLuc secretion signal sequence. The variants were also cloned into vectors without the secretion signal sequence. CHO or HeLa cells were then plates at 100,000 cells/well in 1 mL F12 media with 10% FBS and 1× sodium pyruvate (CHO cells) or DMEM with 10% FBS and 1× sodium pyruvate (HeLa cells) into 12-well plates and incubated overnight at 37° C., 5% CO2.
After the overnight incubation, the cells were transfected with 1 μg plasmid DNA containing 9B8, V2, or L27V with or without the secretion signal sequence using the TRANSIT®-LT1 transfection reagent (Mirus Bio) and OPTI-MEMO media (Invitrogen). The cells were again incubated overnight at 37° C., 5% CO2.
After the second overnight incubation, the media was removed and saved for analysis. […] To 10 μL of cell lysate or saved media from each sample, 50 μL assay buffer with 40 μM PBI-3939 was added, and luminescence measured as described above.
To determine the stability of the secreted variants, 150 μL aliquots of the saved media from each sample was placed at 37° C. or 50° C. The aliquots were then removed at different time points (0, 1, 2, 3, 5, 6, and 7 […]), frozen on dry ice, and kept at −20° C. until assayed. To assay for stability, the media aliquots were thawed to room temperature, and 10 μL of each aliquot was mixed with assay buffer with PBI-3939 (pH 6.0) as described above. Luminescence was measured as above, and the half-life (t50) determined (Table 34).

[3] = Exposure of OgLuc variant to urea; assay type: physicochemical; conditions: 3 M urea, 30 min at 25° C.
Method: Since Firefly luciferase is known to be relatively unstable, it is much more sensitive to urea exposure. To determine whether this was also the case with the OgLuc variants, the sensitivity of the OgLuc to urea was determined 5 μl of 45.3 μM L27V enzyme was mixed with 100 μL of a urea solution (100 mM MOPS, pH 7.2, 100 mM NaCl, 1 mM CDTA, 5% glycerol and various concentrations of urea) and incubated for 30 min at room temperature. 5 μL of the urea+L27V enzyme solution was diluted 10,000-fold into DMEM without phenol red+0.1% PRIONEX®, 50 μL was mixed with 50 μL of assay reagent containing 100 μM PBI-3939 (previously described) and the luminescence was read at 10 min. (FIG. 88).
A 0.31 mg/mL stock of purified L27V variant was diluted 100,000-fold into buffer (PBS+1 mM DTT+0.005% IGEPAL) and incubated with 3 M urea for 30 min at 25° C. and then mixed 1:1 (50 μL+50 μL) with an assay reagent containing 100 μM PBI-3939 (previously described). The reactions were read on a TECAN® INFINITE® F500 luminometer as described previously (for 100 min; 1 min read intervals) (FIG. 89).

[4] = Luminescence of 9B8 opt+K33N derived variants in E. coli; assay type: biochemical
Method: Luminescence generated from the lysates was measured using the novel PBI-3939 and native coelenterazine as substrates. The relative specificity of the variants for PBI-3939 and native coelenterazine was calculated as described previously.
A new OgLuc library was created using 9B8opt+K33N as a starting template. The random library was created using DIVERSIFY® PCR Random Mutagenesis Kit (ClonTech; Catalog #630703). Condition 5 (as listed in the user manual) was used to generate additional variants, and the average mutation rate was calculated to be 2.6 mutations per gene by compiling sequence data from 83 randomly selected clones. This PCR library was cloned into the pF4Ag-based, non-fusion vector background described previously and the sandwich background, i.e., Id-OgLuc-HT7 (described in Example 45). Variants in the pF4Ag-base non-fusion vector background are designated with (NF). Variants in the sandwich vector background are designated with (F). In order to clone the PCR product into both vectors, an amino acid, i.e., a glycine, was appended to the variant sequence in pF4Ag, generating a new position 170 in the OgLuc variant (“170G”). The 170G is present in the sandwich construct, but in this case is considered part of the linker between OgLuc and HT7. For each library, 4,400 E. coli clones were assayed as described previously with the following exceptions. […] The assay buffer contained 100 mM MES pH 6.0 instead of HEPES, and 35 mM thiourea. The assay volumes were as follows: 10 μL cells, 40 μL, lysis buffer, and 50 μL, assay buffer.
E. coli lysates containing the variants were prepared and analyzed as described previously. Luminescence generated from the lysates was measured using the novel PBI-3939 and native coelenterazine as substrates. The luminescence of the variants was normalized to the luminescence generated by 9B8 opt (Table 12). The relative specificity of the variants for PBI-3939 and native coelenterazine was calculated by dividing the luminescence of the variants using PBI-3939 as a substrate with the luminescence of the variants using native coelenterazine as a substrate (Table 12).

[5] = Km of L27V reversion variants, native coelenterazine; assay type: biochemical
Method: Relative activities <1 indicate the reversion is detrimental compared to the residue at that site in the L27V variant. Relative activities >1 indicate the reversion is favorable for activity compared to the residue at that site in the L27V variant. Some additional data on these mutants indicated the following: 166K, 54F, 54A and L27V were tested for thermal stability. The T1/2 60° C. for 166K, 54F, and 54A were 87, 74, and 33%, respectively, indicating these substitutions cause a reduction in thermal stability. […] This indicates higher substrate affinity for L27V, particularly for the position 54 substitutions.

B1: L27V: 9B8 opt+K33N variant with L27V, T39T, K43R, Y68D (SEQ ID NO: 89) (protein)
chain: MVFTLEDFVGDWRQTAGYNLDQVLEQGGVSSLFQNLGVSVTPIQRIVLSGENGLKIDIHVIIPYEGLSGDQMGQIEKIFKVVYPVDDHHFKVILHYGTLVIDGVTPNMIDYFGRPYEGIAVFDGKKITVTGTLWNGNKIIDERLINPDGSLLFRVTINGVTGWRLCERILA
For B1, the Km [1] was 13.9 µM, the Vmax [1] was 190,000,000 RLU/0.5 sec and the “½ life 37 C.” value [2] was 17 days. For the same molecule, the “½ life 50 C.” value [2] was 11 h, the reduction of activity [3] was “approximately 50%” and the Fold over coelenterazine ([4]; luminescence with PBI-3939 divided by luminescence with native coelenterazine, bacterial lysates) was 110. The “Fold over 9B8” value ([4]; luminescence with PBI-3939 normalized to 9B8 opt, bacterial lysates) was 1.8, the “Fold over Native Coelenterazine, E. coli” value ([4]; relative specificity for PBI-3939 compared to native coelenterazine) was 85.2 and the Km [5] was 16 µM.
